Assay results published in patent publication US20130344053A1, “Methods of Modifying Insulin Signaling Using Biliverdin Reductase (BVR) and BVR Derived Peptides” (University of Rochester, priority 2010, published 2013).
Entries after “also recorded” stand apart in the source; their conditions may differ.

Legend:
[1] = target: T1, human BVR (Homo sapiens, UniProt P53004); test: BVR autophosphorylation; type: biochemical; details: 20 mM Zn acetate, pH 8.4; also with Mn^+2
T1 construct: made in house; host or cells: E. coli (pGEX 4T-2/hBVR)
T1 sequence (P53004 1-296 A154S/G155D/E160D): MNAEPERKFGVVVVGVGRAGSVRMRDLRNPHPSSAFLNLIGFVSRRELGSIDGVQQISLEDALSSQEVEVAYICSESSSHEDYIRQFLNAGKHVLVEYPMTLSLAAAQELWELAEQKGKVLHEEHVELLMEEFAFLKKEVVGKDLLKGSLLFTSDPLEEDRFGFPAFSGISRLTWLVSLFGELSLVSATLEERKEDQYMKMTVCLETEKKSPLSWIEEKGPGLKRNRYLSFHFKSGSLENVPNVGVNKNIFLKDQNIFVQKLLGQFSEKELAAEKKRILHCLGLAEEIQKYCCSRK
Procedure: In FIG. 9A, effect of tyrosine mutations of BVR on its autophosphorylation is shown. Human wtBVR and BVR with mutations in tyrosine were used in the experiment to determine autophosphorylation of BVR. The reactions were performed as described in the Examples. FIG. 9B is a graph showing that BVR tyrosine kinase activity was checked by incubating 5 μg purified BVR with 5 μg Raytide in 50 μl kinase buffer containing 10 μM labeled ATP for 2 h at 30° C. The aliquots of the reaction were transferred onto P81 Whatman filters and radioactivity due to phosphorylation was measured using a scintillation counter.
FIGS. 10A-B illustrate that autophosphorylation of BVR is an Mn^+2 dependant kinase reaction. […] The effects of different metal ions (30 mM MnCl2, 20 mM MgCl2, 20 mM CaCl2, 20 mM Zn acetate) and their combinations were analyzed as indicated in the text. […] Phosphorylation of wtBVR by IRK in the presence of tyrosine kinase inhibitor genestein (200 μM); DMSO was used as the vehicle for genestein and was included in the control reaction mixture. The reactions were carried out in HEPES buffer (pH 8.0) in the presence of 20 mM MgCl2 as described in the Examples.
(§1) To detect autophosphorylation of BVR, GST-hBVR of wild type (wt) and mutant variants were incubated in 50 mM HEPES buffer (pH 8.4) in the presence of 30 mM MnCl2 and 1 mM DTT for 2 h at 30° C. The reaction was started with the addition of 10 μM ATP labeled with 10 μCi [γ-^32P]-ATP and was stopped with the addition of Laemmli sample buffer. Samples were boiled for 3 min and applied to a 8% SDS-PAGE gels, transferred to a PVDF membrane, and then visualized by autoradiography. […] The reaction was started with the addition of ATP and terminated by adding 120 μl 10% H3PO4. 100 μl aliquots were directly transferred to P81 Whatman filters which were subsequently washed extensively in 0.75% phosphoric acid at room temperature. Finally, the filters were submerged in acetone for 5 min, dried, and retained counts were measured using a Beckman LS 6500 liquid scintillation counter (Beckman Coulter, Fullerton, Calif.).

[2] = test system: rat smooth muscle cells (PAC1); test: Glucose uptake in PAC1 cells (IGF-dependent); type: cell-based
Procedure: Glucose uptake was tested as described infra. Cells were starved in low glucose serum-depleted DMEM for 20 hours prior to transfer to PBS containing CaCl2, MgCl2. After 2 hrs myristoylated peptides were added to the medium for 2 hours. Thereafter, IGF-1 (50 ng/ml) or insulin (100 nM) was added (10 min) and glucose uptake was tested for 3 min in the presence of methyl-D-glucose,3-O-[methyl-3H]. Subsequently cells were washed 3 times in cold PBS and solubilized in NaOH (0.05 mM). Aliquots were measured for radioactivity. Non-specific binding or diffusion were tested by addition of 300 mM glucose to the cells. This value was deducted from the total counts (on the average <20%) and results were normalized for protein concentration.
FIGS. 15A-B show the effect of hBVR-based peptides on IGF-dependent glucose uptake in rat smooth muscle cells (PAC1) (FIG. 15A) and insulin-dependent glucose uptake in human epithelial kidney (HEK) cells (FIG. 15B). Cells were treated as described for FIG. 14 and glucose uptake was measured as described infra.
The therapeutic utility of various BVR peptides with regard to their ability to modify insulin and insulin growth factor (IGF) mediated cellular glucose uptake was evaluated. Human embryonic kidney cells (HEK293) or rat aortic smooth muscle cells (PAC) were starved in low glucose serum-depleted DMEM for twenty hours prior to transfer to PBS containing CaCl2, MgCl2. After two hours, myristoylated peptides were added to the medium for two additional hours. Thereafter, IGF-1 (50 ng/ml) or insulin (100 nM) was added (10 min) and glucose uptake was tested for three minutes in the presence of methyl-D-glucose,3-O-[methyl-3H]. Subsequently, cells were washed three times in cold PBS and solubilized in NaOH (0.05 mM). Aliquots were measured for radioactivity. Non-specific binding or diffusion was tested by addition of 300 mM glucose to the cells. This value was deducted from the total counts (on the average <20%) and results were normalized for protein concentration.

[3] = target: T2, IRK (Homo sapiens, UniProt P06213); test: IRK autophosphorylation in the presence of hBVR-derived peptides; type: biochemical; details: 20 μM myristoylated hBVR-based peptide, 45 min, purified IRK
T2 construct: the intracellular kinase domain of the insulin receptor; purchased Biomol International (Plymouth, Pa.)
Procedure: FIGS. 13A-B show the effect of hBVR-derived peptides on autophosphorylation of IRK (FIG. 13A) and IRK kinase activity (FIG. 13B). Purified IRK was incubated in the absence or presence of 20 μM of the identified myristoylated hBVR-based peptides for 45 min in an assay system containing 50 mM Hepes pH 7.4, 20 mM MCl2,1 mM EGTA and 20 μM ATP labeled with 5 uCi gamma-P32-ATP. The reaction was stopped with the addition of phosphoric acid and aliquots were applied to P81 Whatman filters. Filters were extensively washed and subjected to counting in a scintillation counter. Total counts of radioactivity of each sample were corrected for non specific binding. […] Activity of IRK toward its substrate, IRS peptide, was tested in the presence of hBVR-based peptides. Experiments were conducted as in described for FIG. 13A with addition of IRS peptide as the substrate.
The effect of hBVR-derived peptides on autophosphorylation of IRK (FIG. 13A) and IRK kinase activity (FIG. 13B) was also investigated.

[4] = test system: BVR; test: BVR tyrosine phosphorylation in insulin-treated 293A cells (immunoprecipitation/immunoblot); type: cell-based, human; details: within 8 min after insulin treatment
Procedure: FIG. 12A-D illustrates that “knock-down” BVR and Y^198 detection increased glucose uptake into 293A cells upon insulin induction. As shown in the graph of FIG. 12A, insulin treatment increases BVR activity. 293A cells were treated with insulin (50 nM) and subsequently used at indicated time points for BVR activity measurement. […] Purified BVR was phosphorylated by IRK for the indicated periods. Reactions were terminated by diluting with PBS and freezing at −20° C. BVR activity was determined as in FIG. 12A, and normalized to that of the control (43.8 μmol per min per mg). […] 293A cells were incubated with insulin and after 8 min or 30 min, subjected to immunoprecipitation using anti-human BVR antibodies. The phosphorylated BVR was visualized by immunoblotting using anti-tyrosine antibodies. ECL system was used for visualization of phosphorylated BVR. In FIG. 12D, the effect of insulin treatment on glucose uptake cells infected with siBVR or Y^198 mutant BVR were treated with insulin for 15 min and subsequently incubated in 1 ml PBS containing 5 mM glucose and 1 μCi/ml-2-deoxy-1 [^3H] glucose (2DG) for 15 min. Cells were washed with cold PBS and lysed by addition of 1% (w/v) SDS to each well. […]
293A Cells were plated in 10 cm plates and transfected with appropriate plasmids. […] Protein concentration was determined by Bradford assay (Bio-Rad, Hercules, Calif.). […]

[5] = test system: BVR; test: BVR reductase activity in insulin-treated 293A cells; type: cell-based, human; details: insulin 50 nM, measured 1 h after treatment
Procedure: FIG. 12A-D illustrates that “knock-down” BVR and Y^198 detection increased glucose uptake into 293A cells upon insulin induction. As shown in the graph of FIG. 12A, insulin treatment increases BVR activity. 293A cells were treated with insulin (50 nM) and subsequently used at indicated time points for BVR activity measurement. […] Purified BVR was phosphorylated by IRK for the indicated periods. Reactions were terminated by diluting with PBS and freezing at −20° C. BVR activity was determined as in FIG. 12A, and normalized to that of the control (43.8 μmol per min per mg). […] 293A cells were incubated with insulin and after 8 min or 30 min, subjected to immunoprecipitation using anti-human BVR antibodies. The phosphorylated BVR was visualized by immunoblotting using anti-tyrosine antibodies. ECL system was used for visualization of phosphorylated BVR. […]
293A cells treated with insulin were lysed in buffer containing a protease inhibitor cocktail and phosphatase inhibitors (10 mM NaF, 1 mM NaVO4). BVR activity was measured at pH 6.7 using NADH as the cofactor as described previously (Huang et al., J. Biol. Chem. 264:7844-9 (1989), which is hereby incorporated by reference in its entirety). The rate of conversion of biliverdin to bilirubin was determined as the increase in absorbance at 450 nm at 25° C. Specific activity is expressed as μmol of bilirubin/min/mg of protein.

[6] = target: T3, Peptide 2, IRS-1 peptide (Arg-Thr-Glu-Ser307-Ile-Thr-Ala-Thr-Ser312-Pro-Ala-Ser315-Met-Val-Gly-Gly-Lys-Pro)
T3 chain: RTESITATSPASMVGGKP

[7] = target: insulin receptor substrate-1 (IRS-1) peptide Y^608
[8] = target: T4, Peptide 1, mutant IRS-1 peptide (Lys-Lys-His-Ala-Asp-Asp-Gly-Ala-Met-Pro-Met-Ser-Pro-Gly-Val-Ala)
T4 chain: KKHADDGAMPMSPGVA

[9] = test system: IRS-1; test: BVR kinase activity with IRS-1 as substrate (wt vs G17 mutant); type: biochemical; details: mutation in ATP binding domain compared with wtBVR
Procedure: BVR containing mutations on threonine 202 and serine residues, as indicated in the figure, were subjected to autophosphorylation analysis as described in the text. […] 5 μg purified BVR was incubated with 5 μg IRS-1 or HO-1 or HO-2, used as a control for kinase activity, and MBP which was used as the substrate control in 50 μl kinase buffer as described in the Examples. […] Mutant G^17 was compared with wtBVR as a kinase for IRS.
as §1

T2 sequence (P06213 980-1382 limits assumed): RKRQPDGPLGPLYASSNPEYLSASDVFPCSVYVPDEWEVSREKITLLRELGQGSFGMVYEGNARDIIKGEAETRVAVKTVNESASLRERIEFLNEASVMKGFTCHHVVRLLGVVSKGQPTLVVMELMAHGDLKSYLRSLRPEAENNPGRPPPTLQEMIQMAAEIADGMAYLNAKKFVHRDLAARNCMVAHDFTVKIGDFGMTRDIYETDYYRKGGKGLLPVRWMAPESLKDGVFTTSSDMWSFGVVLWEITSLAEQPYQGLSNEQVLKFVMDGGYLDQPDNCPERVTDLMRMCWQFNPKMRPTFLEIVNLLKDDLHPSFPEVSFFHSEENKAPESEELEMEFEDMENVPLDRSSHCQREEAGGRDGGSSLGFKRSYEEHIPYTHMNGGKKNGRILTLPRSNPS

## CC(=O)[O-].CC(=O)[O-].[Zn+2] [Zn^+2, Zn acetate, reference compound]
[1]
  BVR autophosphorylation in presence of metal ion: inhibitory to BVR autophosphorylation

## KYCCSRK (Biliverdin reductase derived peptide) [C-terminal hBVR peptide, amino acids 290-296 of BVR; mimics insulin signaling]
[2]; PAC1 cells, IGF-1 50 ng/ml
  effectiveness in enhancing cellular glucose uptake compared with IGF-1: as effective as IGF-1
[2]; myristoylated peptide 2 h, uptake of methyl-D-glucose,3-O-[methyl-3H] for 3 min
  cellular glucose uptake in PAC1 cells: enhances cellular glucose uptake in PAC1 cells in a dose-dependent manner; also recorded: increases glucose uptake in PAC1 cells in a concentration dependent manner
[3]
  IRK autophosphorylation: increases IRK autophosphorylation

## insulin: Human insulin purchased from Sigma-Aldrich
[4]
  BVR tyrosine phosphorylation: dramatic increase in phosphorylation
[5]
  increase in BVR reductase activity: 2 fold

B1: GST-hBVR fusion protein, wild type (human biliverdin reductase fused to glutathione-S-transferase) (protein)
chain: MNAEPERKFGVVVVGVGRAGSVRMRDLRNPHPSSAFLNLIGFVSRRELGSIDGVQQISLEDALSSQEVEVAYICSESSSHEDYIRQFLNAGKHVLVEYPMTLSLAAAQELWELAEQKGKVLHEEHVELLMEEFAFLKKEVVGKDLLKGSLLFTSDPLEEDRFGFPAFSGISRLTWLVSLFGELSLVSATLEERKEDQYMKMTVCLETEKKSPLSWIEEKGPGLKRNRYLSFHFKSGSLENVPNVGVNKNIFLKDQNIFVQKLLGQFSEKELAAEKKRILHCLGLAEEIQKYCCSRK
[6]
  phosphorylation of IRS-1 peptide by BVR (32P, cpm): this peptide is also a suitable substrate for BVR (1198±230 cpm)
[7]
  phosphorylation of BVR by IRK in the presence of increasing molar ratio of IRS/BVR: in the presence of increasing amounts of IRS, there was an increase in phosphorylation of BVR by IR up to equimolar ratio of IRS/BVR
  phosphorylation of IRS-1 peptide by BVR (32P, cpm): both the mutated and unmutated peptides were phosphorylated to about the same extent (1049±78 cpm and 1081±183 cpm respectively)
[8]
  phosphorylation of IRS-1 peptide by BVR (32P, cpm): both the mutated and unmutated peptides were phosphorylated to about the same extent (1049±78 cpm and 1081±183 cpm respectively)

B2: G^17: human BVR point mutant GVGRA to GVARA in ATP binding domain (protein, UniProt P53004 3-296, looked up, variant G17A)
Biliverdin reductase A: AEPERKFGVVVVGVARAGSVRMRDLRNPHPSSAFLNLIGFVSRRELGSIDGVQQISLEDALSSQEVEVAYICSESSSHEDYIRQFLNAGKHVLVEYPMTLSLAAAQELWELAEQKGKVLHEEHVELLMEEFAFLKKEVVGKDLLKGSLLFTAGPLEEERFGFPAFSGISRLTWLVSLFGELSLVSATLEERKEDQYMKMTVCLETEKKSPLSWIEEKGPGLKRNRYLSFHFKSGSLENVPNVGVNKNIFLKDQNIFVQKLLGQFSEKELAAEKKRILHCLGLAEEIQKYCCSRK
[9]
  IRS phosphorylation by BVR: for the most part, prevented IRS phosphorylation by BVR
